Reference: patent publication US20220056119A1 (Regeneron, published 2022)

Legend:
Activin A [1] = target: T1, Activin A (human, UniProt P08476 311-426); experiment: cell-based or functional assay
T1 sequence: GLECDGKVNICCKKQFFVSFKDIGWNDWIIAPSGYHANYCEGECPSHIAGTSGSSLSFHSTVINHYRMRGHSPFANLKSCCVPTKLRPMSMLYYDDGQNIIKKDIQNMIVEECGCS

Activin B = target: T2, Activin B (human, UniProt P09529 293-407); experiment: cell-based or functional assay
T2 chain: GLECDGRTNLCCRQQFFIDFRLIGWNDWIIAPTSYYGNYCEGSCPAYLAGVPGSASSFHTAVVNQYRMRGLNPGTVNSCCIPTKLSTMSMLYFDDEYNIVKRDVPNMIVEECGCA

Activin AB = target: T3, Activin AB (human, UniProt P08476 311-426; P09529 293-407); experiment: cell-based or functional assay
T3 chain 1: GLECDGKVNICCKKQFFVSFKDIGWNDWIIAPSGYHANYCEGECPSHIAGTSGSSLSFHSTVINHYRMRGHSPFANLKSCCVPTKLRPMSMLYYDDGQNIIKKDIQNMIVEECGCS
T3 chain 2: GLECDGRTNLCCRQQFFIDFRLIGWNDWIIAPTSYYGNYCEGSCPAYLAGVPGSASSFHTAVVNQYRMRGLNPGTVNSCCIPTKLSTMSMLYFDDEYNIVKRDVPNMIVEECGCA

Activin AC = target: T4, Activin AC (human, UniProt P55103 237-352); experiment: cell-based or functional assay
T4 sequence 1: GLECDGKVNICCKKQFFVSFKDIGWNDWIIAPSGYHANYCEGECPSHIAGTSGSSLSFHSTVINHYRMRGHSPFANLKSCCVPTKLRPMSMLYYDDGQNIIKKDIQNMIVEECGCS
T4 sequence 2: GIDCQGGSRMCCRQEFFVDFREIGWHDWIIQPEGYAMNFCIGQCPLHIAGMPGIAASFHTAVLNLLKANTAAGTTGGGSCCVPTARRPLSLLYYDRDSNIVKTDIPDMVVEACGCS

Activin A [2] = target: T1, Activin A; experiment: SPR, 5 nM Activin A + 15 nM binder over hActRIIA-hFc surface
How it was run: (§1)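 Signal sampled 150 s after injection onset and corrected against a negative control reference surface.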

Activin A [3] = target: T1, Activin A; experiment: SPR, 5 nM Activin A + 30 nM binder over hActRIIA-hFc surface
How it was run: as §1

Activin A [4] = target: T1, Activin A; experiment: SPR, 5 nM Activin A + 60 nM binder over hActRIIA-hFc surface
How it was run: as §1

Activin A [5] = target: T1, Activin A; experiment: SPR, 5 nM Activin A + 0.94 nM binder over hActRIIA-hFc surface
How it was run: as §1

Activin A [6] = target: T1, Activin A; experiment: SPR, 5 nM Activin A + 1.88 nM binder over hActRIIA-hFc surface
How it was run: as §1

Activin A [7] = target: T1, Activin A; experiment: SPR, 5 nM Activin A + 3.75 nM binder over hActRIIA-hFc surface
How it was run: as §1

Activin A [8] = target: T1, Activin A; experiment: SPR, 5 nM Activin A + 7.50 nM binder over hActRIIA-hFc surface
How it was run: as §1

Activin A [9] = target: T1, Activin A; experiment: SPR, 5 nM Activin A + 15 nM binder over Follistatin-288 surface
How it was run: as §1

Activin A [10] = target: T1, Activin A; experiment: SPR, 5 nM Activin A + 30 nM binder over Follistatin-288 surface
How it was run: as §1

Activin A [11] = target: T1, Activin A; experiment: SPR, 5 nM Activin A + 60 nM binder over Follistatin-288 surface
How it was run: as §1

Activin A [12] = target: T1, Activin A; experiment: SPR, 5 nM Activin A + 7.5 nM binder over Follistatin-288 surface
How it was run: as §1

Activin A [13] = target: T1, Activin A; experiment: SPR, 5 nM Activin A + 0.94 nM binder over Follistatin-288 surface
How it was run: as §1

Activin A [14] = target: T1, Activin A; experiment: SPR, 5 nM Activin A + 1.88 nM binder over Follistatin-288 surface
How it was run: as §1

Activin A [15] = target: T1, Activin A; experiment: SPR, 5 nM Activin A + 3.75 nM binder over Follistatin-288 surface
How it was run: as §1

Activin A [16] = target: T1, Activin A; experiment: SPR, 5 nM Activin A + 0 nM binder (no inhibitor) over Follistatin-288 surface
How it was run: as §1

Activin A [17] = target: T1, Activin A; experiment: SPR, 5 nM Activin A + 0.00 nM binder (no inhibitor) over hActRIIA-hFc surface
How it was run: as §1

[18] = target: T5, Activin B (homodimer of two inhibin betaB subunits) (human, UniProt P09529 293-407); experiment: SPR (Biacore), mAb captured by anti-Fc, Activin B injected, 25 C
T5 construct: Bought (R&D Systems #659-AB-025/CF)
T5 chain: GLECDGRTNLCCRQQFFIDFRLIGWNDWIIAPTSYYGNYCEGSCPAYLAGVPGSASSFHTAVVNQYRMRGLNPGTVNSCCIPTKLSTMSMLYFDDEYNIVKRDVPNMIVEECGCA
Description: Antibody-antigen association was monitored for 240 seconds while dissociation in buffer was monitored for 600 seconds. Kinetic association and dissociation rate constants were determined by processing and fitting the data using Scrubber software version 2.0c. Binding equilibrium dissociation constants (KD) and dissociative half-lives (t_{1/2}) were then calculated from the kinetic rate constants as: KD (M)=kd/kₐ and t_{1/2} (min)=[ln 2/(60*kd)]. (NB=no binding observed under the conditions used; NT=not tested).

B1: H4H10440P2 (antibody, human IgG4, V domains shown)
VH: EVQLVESGGGVVQPGGSLRLSCAASTFTFDDFAMHWVRQAPGKGLEWVSLITGDGGSTYYADPVKGRFTISRDNSKNSLYLQMNSLRTEDTALYYCVKDWWIAARPDYYYYGMDVWGQGTTVTVSS
VL: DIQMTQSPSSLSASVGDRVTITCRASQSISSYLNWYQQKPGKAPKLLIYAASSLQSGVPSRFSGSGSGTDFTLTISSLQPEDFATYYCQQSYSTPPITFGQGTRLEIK
For B1, the “IC50, inhibition of 100 pM Activin A in A204/CAGAx12-Luc luciferase bioassay” value (Activin A [1]) was 2.8e-10 M, the “IC50, inhibition of 50 pM Activin B in A204/CAGAx12-Luc luciferase bioassay” value (Activin B) was 5.2e-09 M and the “IC50, inhibition of 30 pM Activin AB in A204/CAGAx12-Luc luciferase bioassay” value (Activin AB) was 4.3e-10 M. For the same binder, the “IC50, inhibition of 4 nM Activin AC in A204/CAGAx12-Luc luciferase bioassay” value (Activin AC) was 750 pM, the “% bound RU w/ no inhibitor” value (Activin A [2]) was 4% and the “% bound RU w/ no inhibitor” value (Activin A [3]) was 3%. The “% bound RU w/ no inhibitor” value (Activin A [4]) was 3%, the “% bound RU w/ no inhibitor” value (Activin A [5]) was 75% and the “% bound RU w/ no inhibitor” value (Activin A [6]) was 52%. For the same binder, the “% bound RU w/ no inhibitor” value (Activin A [7]) was 17%, the “% bound RU w/ no inhibitor” value (Activin A [8]) was 6% and the “% bound RU w/ no inhibitor” value (Activin A [9]) was 2%. For the same binder, the “% bound RU w/ no inhibitor” value (Activin A [10]) was 1%, the “% bound RU w/ no inhibitor” value (Activin A [11]) was 0% and the “% bound RU w/ no inhibitor” value (Activin A [12]) was 4%. For the same binder, the “% bound RU w/ no inhibitor” value (Activin A [13]) was 76%, the “% bound RU w/ no inhibitor” value (Activin A [14]) was 57% and the “% bound RU w/ no inhibitor” value (Activin A [15]) was 17%. The “% bound RU w/ no inhibitor” value (Activin A [16]) was 100% and the “% bound RU w/ no inhibitor” value (Activin A [17]) was 100%.

B2: H4H10423P (antibody, human IgG4, V domains shown)
VH: QVQLQQSGPGLLKPSQTLSLTCAISGDSVSSNSAAWSWIRQSPSRGLEWLGRTYYRANWFNDYALSVKSRITINPVTSTNHFSLQLHSVTPEDTAVYYCAREGALGYYFDSWGQGTLVTVSS
VL: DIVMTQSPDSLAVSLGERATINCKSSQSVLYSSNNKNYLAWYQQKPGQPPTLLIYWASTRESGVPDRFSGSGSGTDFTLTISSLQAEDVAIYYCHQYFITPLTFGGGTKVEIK
B2 was tested, and the “50 nM Ag Bound (RU)” value [18] was 4.7 RU.
